A value given as a limit tells only on which side of the number the result lay.

Data set [1] can be described thus: Product analysis of reactions of purified His-tag protein with dicamba (14C assay, GC/MS, LC-MS/MS). Format: biochemical. The conditions noted are these: for enzymatic reaction products detected: purified protein incubated with dicamba. How it is done: Alternatively, dicamba decarboxylase activity can be monitored by measuring decarboxylation products other than CO2 using product detection methods. The decarboxylation product of dicamba, 2,5-dichloro anisole or 2,5-DCA (FIG. 1C), is a volatile compound with a flash point of 21° C. To capture this volatile compound for detection, 140 ul of toluene solution is added on top of 1 ml reaction mixture to form a trapping layer in a 1.5 ml eppendorf tube. […] The reaction is kept still at room temperature overnight before being vortex mixed and centrifuged at 14,000 rpm for 15 minutes. The top toluene phase is carefully removed using a micropipette and transferred into a 12×32 mm polypropylene vial (Vial 11 mm) from MicroLiter Analytical Supplies, Inc. (catalog number 11-5300-100). The vial is sealed with Crimp seal (11 mm with FEP/Nat Rubber) from MicroLiter Analytical Supplies, Inc. (catalog number 11-0020A) using a E-Z Crimper™ 11 mm from Wheaton Inc. 1 ul of the toluene mixture is taken from the sealed vials and injected in splitless mode into a GC/MS system for sample analysis (Agilent GC/MS system with a 6890A GC, a 5973N MSD and a CTC CombiPAL auto-sampler or with a 7890A GC, a 5975C MSD and an Agilent GC Sampler 80 auto-sampler).

Data set [2] is described as follows: Dicamba decarboxylation activity of computationally designed protein variants and their parents. The settings on record: for dicamba decarboxylase activity (native protein or designed variant): statement in the description.
The nature of data set [3]: 14C assay with IPTG-induced recombinant E. coli cells: 14CO2 captured from [14C]-carboxyl-labeled dicamba. The settings on record: for Enzymatic Detection level: dicamba decarboxylation activity of the protein of the given SEQ ID NO, High / Low / No.
Data set [4] is described as follows: Saturation mutagenesis of SEQ ID NO:109: dicamba decarboxylation activity of point mutants (carbon dioxide released). The conditions noted are these: decarboxylation activity (carbon dioxide released) of point mutant compared with unmutated backbone protein; backbone SEQ ID NO: 109.
Where [5] appears, read: compared to estimated CO2 formation (100%).

B1: 1 (protein, listed as Rhizobium sp.)
chain: MAQGKVALEEHFAIPETLQDSAGFVPGDYWKELQHRLLDIQDTRLKLMDAHGIETMILSLNAPAVQAIPDRRKAIEIARRANDVLAEECAKRPDRFLAFAALPLQDPDAATEELQRCVNDLGFVGALVNGFSQEGDGQTPLYYDLPQYRPFWGEVEKLDVPFYLHPRNPLPQDSRIYDGHPWLLGPTWAFAQETAVHALRLMASGLFDEHPRLNIILGHMGEGLPYMMWRIDHRNAWVKLPPRYPAKRRFMDYFNENFHITTSGNFRTQTLIDAILEIGADRILFSTDWPFENIDHASDWFNATSIAEADRVKIGRTNARRLFKLDGA
With B1, in data set [1] (setting [5]), the “relative amount of 2,5-DCA” value is listed as < 1%, the “relative amount of 2,5-DCP” value is given as > 80% and the “relative amount of 4-chloro-3-methoxy phenol” value is listed as < 10%. In data set [1], the “enzymatic reaction products detected” value is listed as “four enzymatic reaction products”. In addition, in data set [2] (parent = 100), the “Percent Activity Improvement Over Parent” value is listed as 100%. Moreover, the “decarboxylation activity of dicamba” value in data set [3] (among the 108 sequences tested, recombinant E. coli cells) is “showed decarboxylation activity of dicamba”. In addition, in data set [3], the “Enzymatic Detection level” value is “High”. In data set [3] (induced recombinant E. coli cells, [14C]-carboxyl-labeled dicamba, 14CO2 capture), the “Dicamba Decarboxylase Activity” value was “High”. The “Fold Activity” value in data set [4] stood at 1.2.

B2: 121 (protein)
chain: MAIIDCHGHYTTTPKGVEDYRNAQKAAVAKDPSFKGEKGQVVVSDDEIRESIENNQLKMQRERGTDLTIFSPRWDAGGHHIGNEYTSQFWTEHQNDLIRRVCDLFPKNFAPVAQLPQSPGVDPAKSVPEIVRTVEQMGFIGINLNPDPSGGYWKDTSLADRAFYPIYEKMVEYDIPAMIHPRLACNACFHTGLSVGLGADTTGFQQLIMSDVFKDFPSLKIIIPHGGGAVPYHWGRFRGLMQDQGYAPLEESALKNIYFDTCVYHQRGIDLLLDIVPTQNILFASEMIGAVRGIDPETGHNFDDTKRYIDNNTALNAEEKAMIFEGNARRVFSRLKTD
modifications: Dicamba decarboxylase variant clone: DC.12.014
For the molecule B2, the “enzymatic reaction products detected” value in data set [1] is recorded as 2,5-DCA was detected. Also, in data set [2], the “dicamba decarboxylase activity (native protein or designed variant)” value is “have dicamba decarboxylase activity”. Moreover, the “Enzymatic Detection level” value in data set [3] is recorded as “High”. For the same molecule, the “Fold Activity” value in data set [4] worked out at 1.

B3: 117 (protein)
chain: MAKKPRIDMHSHFFPRISEQEAAKFDANHAPWLQVSAKGDTGSIMMGKNNFRPVYQALWDPAFRIEEMDAQGVDVQVTCATPVMFGYTWEANKAAQWAERMNDFALEFAAHNPQRIKVLAQVPLQDLDLACKEASRAVAAGHLGIQIGNHLGDKDLDDATLEAFLTHCANEDIPILVHPWDMMGGQRMKKWMLPVLVAAPAEVQLAILSLILSGAFERIPKSLKICFAGGGGSFAFLLGIVDLAWRHRDIVREDCPRPPSEYVDRFFVDSLVFNPGALELLVSVMGEDRVMLGSDYPFPTGEQKIGGLVLSSNLGESAKDKIISGNASKFFNINV
modifications: Dicamba decarboxylase variant clone: DC.5.008
Turning to B3, in data set [1], the “enzymatic reaction products detected” value is reported as 2,5-DCA was detected. For the same molecule, the “dicamba decarboxylase activity (native protein or designed variant)” value in data set [2] is “have dicamba decarboxylase activity”. For the same molecule, the “Enzymatic Detection level” value in data set [3] is “High”. For the same molecule, in data set [4], the “Fold Activity” value worked out at 1.8.

B4: 118 (protein)
chain: MAKKPRIDMHSHFFPRISEQEAAKFDANHAPWLQVSAKGDTGSIMMGKNNFQPVYQALWDPAFRIEEMDAQGVDVQVTCATPVMFGYTWEANKAAQWAERMNDFALEFAAHNPQRIKVLAQVPLQDLDLACKEASRAVAAGHLGIQIGNHLGDKDLDDATLEAFLTHCANEDIPILVHGTDMMGGQRMKKWGLPWLVALAAEVQLAILSLILSGAFERIPKSLKICFSHGGGSFAFLLGLVDEAWRHVDIVREDCPRPPSEYVDRFFVDSVGNPGALELLVSVMGEDRVMLGSDYPHTTGEQKIGGLVLSSNLGESAKDKIISGNASKFFNINV
modifications: Dicamba decarboxylase variant clone: DC.5.033
On to B4, for which, in data set [1], the “enzymatic reaction products detected” value is 2,5-DCA was detected. For the same molecule, the “dicamba decarboxylase activity (native protein or designed variant)” value in data set [2] is “have dicamba decarboxylase activity”. Also, in data set [3], the “Enzymatic Detection level” value is recorded as “High”. The “Fold Activity” value in data set [4] is 1.4.

B5: 119 (protein)
chain: MAKKPRIDMHSHFFPRISEQEAAKFDANHAPWLQVSAKGDTGSIMMGKNNFQPVYQALWDPAFRIEEMDAQGVDVQVTCATPVMFGYTWEANKAAQWAERMNDFALEFAAHNPQRIKVLAQVPLQDLDLACKEASRAVAAGHLGIQIGNHLGDKDLDDATLEAFLTHCANEDIPILVHGWDMMGGQRMKKWGLYWLVAHHAEVQLAILSLILSGAFERIPKSLKICFSHGGGSFAFTLGWVDEAWRHVDIVREDCPRPPSEYVDRFFVDSVGNPGALELLVSVMGEDRVMLGSDYPLTTGEQKIGGLVLSSNLGESAKDKIISGNASKFFNINV
modifications: Dicamba decarboxylase variant clone:DC.5.034
Take B5: the “enzymatic reaction products detected” value in data set [1] is 2,5-DCA was detected. Further, the “dicamba decarboxylase activity (native protein or designed variant)” value in data set [2] was “have dicamba decarboxylase activity”. In addition, in data set [3], the “Enzymatic Detection level” value is listed as “High”. The “Fold Activity” value in data set [4] was 1.6.

B6: 120 (protein)
chain: MAIIDCHGHYTTTPKGVETYRNAQKAAVAKDPSFKYEKGQVVVSDDEIRESIENNQLKMQRERGTDLTIFSPRSTAGGHHIGNEYTSQFWTEHQNDLIRRVCDLFPKNFAPVAQLPQSPGVDPAKSVPEIVRTVEQMGFIGINLNPDPSGGYWKDTSLADRAFYPIYEKMVEYDIPAMIHPRNACNDCFHTTGSHALGADTTGFQQLIMSDVFKDFPSLKIIIPHGGGAVPYHWGRFRGLMQDQGYAPLEESALKNIYFDTCVYHQRGIDLLLDIVPTQNILFASEMIGAVRGIDAETGHNFDDTKRYIDNNTALNAEEKAMIFEGNARRVFSRLKTD
modifications: Dicamba decarboxylase variant clone: DC.12.002
For B6, the “enzymatic reaction products detected” value in data set [1] is reported as 2,5-DCA was detected. Also, the “dicamba decarboxylase activity (native protein or designed variant)” value in data set [2] is recorded as “have dicamba decarboxylase activity”. Besides, the “Enzymatic Detection level” value in data set [3] is “High”. The “Fold Activity” value in data set [4] was 1.3.

B7: 122 (protein)
chain: MAIIDCHGHYTTTPKGVEDYRNAQKAAVAKDPSFKGEKGQVVVSDDEIRESIENNQLKMQRERGTDLTIFSPRSTAGGHHIGNEYTSQFWTEHQNDLIRRVCDLFPKNFAPVAQLPQSPGVDPAKSVPEIVRTVEQMGFIGINLNPDPSGGYWKDTSLADRAFYPIYEKMVEYDIPAMIHPRNACNDCFHTTGSHALGADTTGFQQLIMSDVFKDFPSLKIIIPHGGGAVPYHWGRFRGLMQDQGYAPLEESALKNIYFDTCVYHQRGIDLLLDIVPTQNILFASDMIGAVRGIDPETGHNFDDTKRYIDNNTALNAEEKAMIFEGNARRVFSRLKTD
modifications: Dicamba decarboxylase variant clone: DC.12.103
B7: the “enzymatic reaction products detected” value in data set [1] is reported as 2,5-DCA was detected. Further, the “dicamba decarboxylase activity (native protein or designed variant)” value in data set [2] is reported as “have dicamba decarboxylase activity”. The “Enzymatic Detection level” value in data set [3] is “High”. For the same molecule, the “Fold Activity” value in data set [4] came to 0.9.

Source of the values: patent US20160053277A1, “Compositions Having Dicamba Decarboxylase Activity and Methods of Use” (PIONEER HI-BRED INTERNATIONAL, INC., priority 2013, published 2016).
